Release of PGE2 and PGI2 from HUVEC (effective concentration of DAA-I) data for one substance are collected here from patent US20170274038A1.

In this assay the target is angiotensin AT1 receptor (on human umbilical vein endothelial cells) (human) (UniProt P30556). The experiment in a line: cell-based or functional assay.
Chain of UniProt P30556 (P30556 whole entry): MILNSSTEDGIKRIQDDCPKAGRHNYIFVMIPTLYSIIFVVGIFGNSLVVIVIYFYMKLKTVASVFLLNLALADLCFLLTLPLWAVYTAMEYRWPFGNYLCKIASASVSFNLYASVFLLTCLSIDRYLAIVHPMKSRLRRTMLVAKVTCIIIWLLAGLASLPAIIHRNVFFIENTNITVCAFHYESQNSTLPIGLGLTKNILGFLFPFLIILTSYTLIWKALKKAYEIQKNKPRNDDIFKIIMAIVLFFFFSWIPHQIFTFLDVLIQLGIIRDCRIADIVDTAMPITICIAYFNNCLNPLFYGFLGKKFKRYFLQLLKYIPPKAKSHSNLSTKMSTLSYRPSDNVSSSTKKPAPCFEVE

“des-aspartate-angiotensin I (from UniProt P01019 26-34) (peptide)” displayed a release of PGE2 and PGI2 from HUVEC (effective concentration of DAA-I) of 100 pM.
